These results are taken from paper PMC9189065.

Assay [1] has as its target mouse METAP1(1-79) (mouse) (UniProt Q8BP48). Kind of assay: other fluorescence titration.
Assay [2] addresses mouse METAP1(1-59) (mouse) (UniProt Q8BP48). The experiment in a line: other fluorescence titration.

As for “mouse ZNG1 N-terminal peptide, synthetic”, in assay [1], the dissociation constant (Kd) is 100 nM and the stoichiometry N was 1. In assay [2], this substance gave a Kd of 100 nM and a stoichiometry N of 1.

A word on the Kd: it is the equilibrium constant for the complex coming apart. As a reminder, the stoichiometry N is a count of units in the complex or per binding partner.
